# From patent US20160200786A1
# Ends that are not written are not given here.
# B1: BCLXBH3 (peptide)
# peptide: VIPMAAVKQALREAGDEFEL
# modifications: fluorescein at the amino-terminus via an AHA linker in the Kd assays; unlabelled as competitor and on mitochondria
# Experiments:
# [1] = target: GST-BCL-2δC21 fusion protein [GST: P08515]; experiment: fluorescence polarization, 25 nM fluorescein-peptide titrated with GST-BCL-2, 37 C
# [2] = target: GST-BCL-2δC21 fusion protein [GST: P08515]; experiment: fluorescence polarization, unlabelled peptide displacing 25 nM fluoresceinated BIDBH3 from 1 µM GST-BCL-2
# [3] = target: GST-BCL-2δC21 fusion protein [GST: P08515]; experiment: fluorescence polarization, 25 nM fluorescein-peptide titrated with GST-BCL-2, 37 C; SD +/- 272
# [4] = target: GST-BCL-2δC21 fusion protein [GST: P08515]; experiment: fluorescence polarization, unlabelled peptide displacing 25 nM fluoresceinated BIDBH3 from 1 µM GST-BCL-2; SD +/- 1648
# [5] = target: GST-BCL-2δC21 fusion protein [GST: P08515]; experiment: fluorescence polarization, Kd of BADBH3 against Kd of BIDBH3 on BCL-2
# [6] = target: GST-BCL-2δC21 fusion protein [GST: P08515]; experiment: fluorescence polarization, 25 nM fluorescein-peptide titrated with GST-BCL-2, 37 C; SD +/- 11
# [7] = target: GST-BCL-2δC21 fusion protein [GST: P08515]; experiment: fluorescence polarization, 25 nM fluorescein-peptide titrated with GST-BCL-2, 37 C; SD +/- 6
# [8] = target: GST-BCL-2δC21 fusion protein [GST: P08515]; experiment: fluorescence polarization, unlabelled peptide displacing 25 nM fluoresceinated BIDBH3 from 1 µM GST-BCL-2; SD +/- 60
Molecule,Kd [1] [nM],IC50 [2] [nM],further results
NOXABBH3 (peptide),> 1000,> 30000,
NOXAABH3 (peptide),> 1000,> 30000,
MEGSDALALRLACIGDEMDV (not fully specified) [BIKBH3],,,Kd [3]: 485 nM; IC50 [4]: 4920 nM
NLWAAQRYGRELRRMSDEFVDSFKK (not fully specified) [BADBH3],,,fold greater affinity than BIDBH3 peptide [5]: 5 fold; Kd [6]: 41 nM
LWAAQRYGRELRRMSDEFEGSFKGL (not fully specified) [mBADBH3],,,Kd [7]: 39 nM; IC50 [8]: 173 nM
EDIIRNIARHAAQVGASMDR (not fully specified) [BIDBH3 mut],> 1000,> 30000,
B1,> 1000,> 30000,
